Values quoted from earlier work, collected in patent US12653898B2, “Polyoxyethylene derivatives and conjugates thereof” (NATIONAL UNIVERSITY CORPORATION HOKKAIDO UNIVERSITY, priority 2023, dated 2026).
Like-named read-outs stand apart in the source and are kept apart here.

Conditions: under physiological conditions

B1: conjugate of bovine pancreas-derived ribonuclease A (RNase A) and compound 7: conjugate of RNase A and compound 7 (1-benzyl-1H-1,2,3-triazole-4-carbaldehyde) of WO 2020/175680 (conjugate, UniProt P61823 27-150, looked up)
Ribonuclease pancreatic: KETAAAKFERQHMDSSTSAASSSNYCNQMMKSRNLTKDRCKPVNTFVHESLADVQAVCSQKNVACKNGQTNCYQSYSTMSITDCRETGSSKYPNCAYKTTQANKHIIVACEGNPYVPVHFDASV
modifications: triazole carbaldehyde compound 7 conjugate
In the case of B1, the degradation half-life (FIG. 54 of WO 2020/175680) is listed as 12 to 18 h and the degradation half-life (comparison value from WO 2020/175680) is listed as 12 to 18 h.
